In publication PMC3365014, “Specific Recognition of p53 Tetramers by Peptides Derived from p53 Interacting Proteins” (PLoS ONE, 2012):

Assays:
[1] = biological target: WS100B(61–75), fluorescein-labeled; assay: fluorescence polarisation; fluorescence anisotropy at increasing NaCl; p53CTD titrated into 200 nM peptide; 10 mM sodium phosphate pH 7.2, 25°C; ln(Kd) against ln(NaCl activity) fit linearly and extrapolated to physiological ionic strength
[2] = biological target: p53 monomer (Homo sapiens) (UniProt P04637); conditions: cited from earlier work

| Estimated physiological Kd [1] | Substance | Kd [2] |
| --- | --- | --- |
| 19 µM | p53 C-terminal domain (p53CTD, residues 293–393) (from UniProt P04637 293-393) (domain or fragment) | – |
| – | p53 monomer (from UniProt P04637) | 1 nM |
